± gives the uncertainty stated by the source.

The nature of the data set: amyloid nucleation score (Sup35N fusion, yeast selection) (log enrichment); library NNK1; higher = more nucleation; inactive = no reads after selection. In short, it runs like this: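 Yeast lacking psi expressed peptides of 20 random codons fused to Sup35N, received 100 μM copper sulfate for 24 hours, and were then grown for 7 days at 30°C on medium lacking adenine and uracil. Illumina sequencing of input and output plasmid inserts provided the reads. Nucleation scores are DiMSum log enrichments of output over input, centred on the mode of non-aggregating sequences. Any sequence with under 100 input reads was excluded.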
The substance CSAQTGVGSFPFGNIPVVSV returned an amyloid nucleation score of 0.789 ± 0.56.
Substance VRYSGNMLSSTSVNGIFGHE returned an amyloid nucleation score of 0.067 ± 0.28.
The result for KCSVCF reads 2.24 ± 0.35.
In the case of TMYSVYRFVGCKKSFMVRKG, the amyloid nucleation score came to 0.454 ± 0.4.
The result for TEGFNTANA reads -0.34 ± 1.1.
The same measure for YFFGLILY: -0.332 ± 0.56.
In turn, LCEFSPLSCGCYGRDPHVPP displayed an amyloid nucleation score of -0.73 ± 1.2.
Take IFVYRRRMGSIV: the amyloid nucleation score was determined as 1.08 ± 0.32.
LFIKFGTHVRYILA: the amyloid nucleation score was -0.202 ± 0.42.
The same measure for CLFNQKGMFTSGCKVYLTLV: -0.152 ± 0.27; for DCLWPLVSMFLVPLRASKVR: 0.128 ± 0.44.
The same measure for VKYLRYFSSLDLLLIVLQAI: 0.31 ± 1.2; for CMAVWEKIENGVHLLHRSAD: 2.76 ± 0.12.
The result for GPDNVCCGSRPKISDVGYGM reads “inactive”.
Take VDRVGYIP: the amyloid nucleation score was -0.506 ± 0.47.
Substance VAHSLYLNIYGFQLMS came in with an amyloid nucleation score of 7.454 ± 0.06.
Substance SIDVSDSSRDGYSDMWSKCK gave an amyloid nucleation score of -0.164 ± 0.24.
The result for LCVCGPRSVVNAREDVEGLS reads 0.478 ± 0.55.
The result for FCYIHGILGRSVEYDDFCLL reads 0.184 ± 0.36; that for ARFCRGGRIVSLMRVLTQTR, -0.931 ± 1.3; that for MVVFMYVST, 0.289 ± 0.39.
The result for FDWGGTAYKKA reads 1.01 ± 0.97.
On to YYHRSNTLLSIYVSKLLTNN, for which the amyloid nucleation score was -0.183 ± 1.2.
The result for CLLFNGNKLVCSHILMRKNG reads 0.443 ± 0.23; that for NMRYHGISCRYRKYYFRWLD, -0.261 ± 0.31.
Regarding ISATCL, the amyloid nucleation score stood at 0.858 ± 0.76.
YTFQIILNSVPWYFCAMLWE: the amyloid nucleation score stood at 5.54 ± 0.1.
The same measure for LTGRCPFVGLRLEGHLFLTG: -0.169 ± 0.81.
With IDFYVCDMC, the amyloid nucleation score stood at 7.857 ± 0.058.
The same measure for YSSVDDGGDQHRGLSKAGHN: -0.525 ± 0.64; for WARCTGIMFGS: 0.027 ± 0.97; for HNLYMWVFCCCQYRMNFSWS: 3.49 ± 0.11.
YFAEDSCERFAPDWVRLSTR yielded an amyloid nucleation score of -0.425 ± 1.3.
Take FKEFTAIDKSRSVLLNLEPD: the amyloid nucleation score result was “inactive”.
The result for SGGWTSLDGDMSCSSVTYLV reads -0.703 ± 0.84.
Take VRCTFLVKVDWTFYKASRPR: the amyloid nucleation score amounted to 0.087 ± 0.47.
The result for CSNRWCLKTRVERVMERGSV reads 0.218 ± 0.54.
As to IEVGYLSTCEFLVRMRKL, the amyloid nucleation score came out at 0.346 ± 0.51.
The result for SYMGSNSSYYCMRGWGRTWY reads 2.14 ± 0.095; that for MFGQWMAPHQTRFGSGQFGW, -0.038 ± 0.38; that for DVFIGMMLRACNVLHSGWFS, 0.18 ± 0.23.
The result for GGNDHVANLTCNNVAGSRGT reads 4.33 ± 0.14; that for FFINQRDLLS, -0.084 ± 0.46.
The result for IIGQLRI reads 0.454 ± 0.66; that for SGKYAFLFLVYCTGVLMKCW, -1.17 ± 1.7.
Regarding RVSMVEVNLIYYMLPGHA, the amyloid nucleation score was -0.125 ± 0.54.
Take SPPMSKLVMATRVLKCMDPS: the amyloid nucleation score was 0.086 ± 0.79.
GRGVLSSPSALGRFSLTEGM came in with an amyloid nucleation score of -0.444 ± 0.44.
The result for YHFTSFSNVHHLAHRVGNSF reads -0.333 ± 1.4; that for LSNALS, 0.8 ± 0.81; that for VLLQELLSYITIGCLELGFG, 0.11 ± 0.3.
LGGGTFVRWLKSILSFLLW showed an amyloid nucleation score of 0.325 ± 0.46.
Turning to LEVVHRVLCTFCLFDSLMVY, the amyloid nucleation score was found to be 1.78 ± 0.26.
On to HGNCWSPTRAVRQYGVNAPM, for which the amyloid nucleation score was found to be 0.81 ± 0.36.
On to PSTPQSHKMMGYRFRDRTGW, for which the amyloid nucleation score is -1.03 ± 2.7.
FHDLGSKCYSMRGTADCFSR showed an amyloid nucleation score of 0.347 ± 0.72.
The same measure for PIFKMDCGDMVCT: 0.121 ± 0.22; for YVYRFNFLNFVW: 1.93 ± 0.12; for GRFSVVAISHKQTFNFDWRT: 8.058 ± 0.072.
In turn, CLKFSIFDGE returned an amyloid nucleation score of 0.127 ± 0.6.
In turn, MQGDRQDGLYNKGDYPQFIF gave an amyloid nucleation score of -0.267 ± 0.39.
On to RYTEAASICRLVLGGQGVRI, for which the amyloid nucleation score is -0.155 ± 0.96.
The same measure for GDSMV: -0.606 ± 0.4; for PGYQTSWWYMLKCKTSSLNY: 0.468 ± 0.47; for GPHLIKVCFSEPMGFKVFLL: 2.12 ± 0.14.
The same measure for AMKVFYDMWKTACY: -0.507 ± 0.7.
On to AVASMWPRGLALSRLVSLNA, for which the amyloid nucleation score amounted to 0.05 ± 0.47.
Consider LLLIFNEELW, for which the amyloid nucleation score was -0.28 ± 0.43.
The result for TSHPFLLQFMDDPFELSLAQ reads -0.714 ± 0.48.
The result for VRTSVCCTRALAMLRSLWVT reads -0.625 ± 0.73; that for MLVNSM, 0.497 ± 0.49.
YLFKSISCNSGRTRNQPKGQ registered an amyloid nucleation score of -0.195 ± 1.4.
Regarding SNAIVTFIVGVAAPGTYYS, the amyloid nucleation score came out at 6.47 ± 0.062.
The result for SLNFTDHIYYMDGLLIAVVE reads 0.358 ± 0.32.
The same measure for AYLNREFGFLFTLNFGCGFF: -0.636 ± 0.39.
The result for FKLGFGVYIVVGKEGFVVSR reads 2.02 ± 0.23; that for FCLFGRLVTFLAVKMYVNCE, -0.529 ± 0.3.
YNSEGDRLESNESWDWMARR: the amyloid nucleation score came to 0.511 ± 0.57.
As for FCFLGRCEQHYYLEVHNGSE, the amyloid nucleation score is -0.1 ± 0.49.
The result for YWDYNNFRFFLRKLSFISRL reads 0.822 ± 1.
In turn, GPSLFG showed an amyloid nucleation score of 0.121 ± 0.37.
On to CSDNV, for which the amyloid nucleation score turned out to be 1.01 ± 0.49.
AMHNSSDGCRFDTYSVCVYW came in with an amyloid nucleation score of 2.68 ± 0.21.
Regarding DVSPLVFVC, the amyloid nucleation score was -0.407 ± 0.74.
The result for YSLSPTKLGFSERLDSNEVV reads 0.225 ± 0.62.
Substance LHQVMAWCMGEKWAETRSPW registered an amyloid nucleation score of -0.703 ± 2.1.
TCMWMILLFINR came in with an amyloid nucleation score of 0.608 ± 0.27.
Turning to MGPMCSQPLHVPSMVSMVTL, the amyloid nucleation score was 0.735 ± 0.35.
Take FFGLFQLETWA: the amyloid nucleation score came to 0.02 ± 0.37.
The result for DYGNTVNYSSGEDVHWL reads -0.592 ± 1.7; that for QYYFDLIDLGITVDVMS, 0.684 ± 0.84.
The same measure for NNDINFSDLFRCGERTYVFW: 2.24 ± 0.18.
For HGKFRHLSCTASSNEVEGNN, the amyloid nucleation score stood at 1.17 ± 0.58.
The same measure for CLQDMFFTNELSFAGTLLIS: 0.049 ± 0.34; for NTLTMIHLIVLTELSLFK: 0.297 ± 0.26; for VLPFSLFAYAACFVLTLTYV: 0.274 ± 1.1.
Turning to CPRHVALGHLNYLGQDFDLK, the amyloid nucleation score was 0.326 ± 1.2.
The result for YADRFRASASPNMCDRCSLW reads 4.01 ± 0.098.
The result for QDCARH reads “inactive”; that for DLDSVGTVMGDQGDFS, -0.416 ± 0.55.
As for SFDRCCRGFAWISYGEQTAY, the amyloid nucleation score worked out at 0.219 ± 0.53.
In turn, WNEWRGHVTILGDLYSYRHT had an amyloid nucleation score of 3.6 ± 0.16.
The same measure for GLGVVPITAERRVSLRYSEC: -0.242 ± 0.35; for DTGLGVCWSAKLGYCVWGSL: 6.61 ± 0.071; for IMLQCYIVFCFRGRSLIRKA: -0.524 ± 0.36.
In turn, RLCWQDIGTLFVSWPRMIFV had an amyloid nucleation score of 0.071 ± 0.45.
On to RVKEPFRTYSRTALMC, for which the amyloid nucleation score was found to be 0.306 ± 0.41.
The substance TSASVGLVMWTTWMRNQG yielded an amyloid nucleation score of 3.75 ± 0.087.
The result for GFTDYNRVRYKVLTVVFDYG reads -1.51 ± 0.95; that for KVRMLNMVYKNLSDRD, 0.884 ± 0.56.
IVDSVRGKGVY showed an amyloid nucleation score of 1.14 ± 0.79.
Regarding SVSVNHSLPTLESDL, the amyloid nucleation score is -0.682 ± 0.62.
The result for YNTCECFSFLTCKWLNKMDG reads 2.79 ± 0.16; that for SCPVPKLLAIGLSHVRSFGF, -0.47 ± 0.42; that for SPTTKCLPSERSSINCNLMT, 0.311 ± 0.68.
GMYPGESSWKLEKEVIL showed an amyloid nucleation score of 0.539 ± 0.6.
Consider CRAGY, for which the amyloid nucleation score is -0.534 ± 0.64.
AFSSVEFRLDVNVFPEWVVL returned an amyloid nucleation score of 3.9 ± 0.12.
Consider AICKRRQLRVLSQALRLSLL, for which the amyloid nucleation score stood at 1.14 ± 0.4.
Substance INIVVMGMAGRRQGVPVACV showed an amyloid nucleation score of 1.59 ± 0.72.
For the substance CRACRLRVIFNELMVGWVMF, the amyloid nucleation score result was “inactive”.
With IQSFAMLMQVCLIAHLYRRL, the amyloid nucleation score was 0.108 ± 1.
Consider RWDYDWNQVSCNDSRIGKLT, for which the amyloid nucleation score stood at 0.565 ± 0.61.
The same measure for HDKYTLIGPRH: -1.27 ± 1.2.
Take TTPGALSSRTMSMPDVLGIE: the amyloid nucleation score is 1.37 ± 0.5.
The same measure for FCRRGSWVEPLLTCRYAMEA: -0.155 ± 0.64; for STRICWGTCFDKLDMGGSR: 1.95 ± 0.34.
The result for FCWHAFLSVTRFGRKIFFRF reads 0.426 ± 0.35.
The result for SNKSSSDIDCVYLENCSTSG reads 1.43 ± 0.36; that for MHRESR, 1.2 ± 0.36.
Substance KLCWASTRMMWRFYFLDCLD gave an amyloid nucleation score of 0.146 ± 0.39.
The result for SNCERAIAKSHLVARPFSVS reads 0.16 ± 0.73.
The same measure for LKQSYKKPY: “inactive”.
The same measure for VAFVLLTQVGGWRLGIWRRK: -1.09 ± 0.66; for RYVTDSGVGSIPRYLIKCSR: -0.111 ± 0.42.
For QILCLTVVSVFQGYSVMIPF, the amyloid nucleation score stood at 0.022 ± 0.32.
Consider IIRFWLTSVVIYMSFLCRGR, for which the amyloid nucleation score was -1.2 ± 1.9.
The same measure for FSSCVNDFLGGRPPSKVLSF: 0.068 ± 0.48; for YCPSC: 0.859 ± 0.42.

The record behind these values is the supplement of paper PMC12042874.
